Data from article PMC6499398.
Read-outs that look alike come from different tables or passages of the source.

What was measured:
Test in all cases: EMSA
[1] = target: T1, TDP43(WT) (UniProt Q13148 1-414)
[2] = target: T1, TDP43(WT); remark: listed apart in the source
[3] = target: T1, TDP43(WT); remark: listed apart in the source

T1 sequence (Q13148 whole entry): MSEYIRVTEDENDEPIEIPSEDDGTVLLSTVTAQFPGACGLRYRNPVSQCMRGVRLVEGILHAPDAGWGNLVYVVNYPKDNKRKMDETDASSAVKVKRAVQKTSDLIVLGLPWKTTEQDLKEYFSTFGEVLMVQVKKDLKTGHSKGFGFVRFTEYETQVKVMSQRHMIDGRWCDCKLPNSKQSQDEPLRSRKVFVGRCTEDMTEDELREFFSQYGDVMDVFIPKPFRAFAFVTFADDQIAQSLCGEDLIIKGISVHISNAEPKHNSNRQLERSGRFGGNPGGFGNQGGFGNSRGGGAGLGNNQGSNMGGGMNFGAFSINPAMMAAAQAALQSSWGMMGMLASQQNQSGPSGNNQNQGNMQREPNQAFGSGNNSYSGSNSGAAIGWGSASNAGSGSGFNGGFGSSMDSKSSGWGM

Row | Binder | binding result [3] | further results
1 | TGTGTGTGTGTGTGTGTGTGTGTG (ssDNA) [(TG)12] | – | Kd [1]: 7.4 ± 0.34 nM
2 | UGUGUGUGUGUGUGUGUGUGUGUG (ssRNA) [(UG)12] | – | Kd [2]: 0.35 ± 0.1 nM
3 | ATATATATATATATATATATATAT (ssDNA) [(AT)12] | no binding | –
4 | GCGCGCGCGCGCGCGCGCGCGCGC (ssDNA) [(GC)12] | no binding | –
